This is an account of results in patent US11260115B1, “Peptides and combination of peptides for use in immunotherapy against CLL and other cancers” (immatics biotechnologies GmbH, priority 2015, dated 2022).

One experiment addresses HLA-A*02:01 (Homo sapiens, UniProt P04439, D140Y/D185E/D98H/E176V/E277Q/G131W/G231S/I119V/I121R/I166T/I218V/L300P/L318F/N151K/N90K/P208A/P217A/Q86G/Q94H/R138H/R169H/T345S). The experiment is described as follows: MHC binding assay (UV-ligand exchange, β2m ELISA, peptide exchange yield). To be noted: binding to HLA-A*02:01. The method, boiled down:
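Peptide-HLA-A*02:01 complexes formed by UV-mediated exchange of a photocleavable ligand; exchange yield measured by streptavidin-capture ELISA detecting β2m with HRP anti-β2m, TMB read at 450 nm. Refolded monomer standards 15-500 ng/ml; samples diluted 100-fold.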

A further experiment relates to CD8+ T cells. The experiment in a line: In vitro immunogenicity: T-cell priming with aAPCs loaded with peptide/MHC and anti-CD28, pMHC multimer readout. The class given is cell-based, human. To be noted: HLA-A*02 restricted peptides, percentage of positive wells among evaluable. The procedure: FIGS. 3A-3F describe simulation graphs of various peptides of the present disclosure. […] CD8+ T cells were primed using artificial APCs coated with anti-CD28 mAb and HLA-A*02 in complex with SeqID No 1 peptide (FIG. 3C, left panel), SeqID No 5 peptide (FIG. 3D left panel), SeqID No 32 peptide (FIG. 3E, left panel) and SeqID No 220 peptide (FIG. 3F, left panel), respectively. After three cycles of stimulation, the detection of peptide-reactive cells was performed by 2D multimer staining with A*02/SeqID No 1 (FIG. 3C), A*02/SeqID No 5 (D), A*02/SeqID No 32 (FIG. 3E) or A*02/SeqID No 220 (FIG. 3F). Right panels (FIGS. 3C, 3D, 3E and 3F) show control staining of cells stimulated with irrelevant A*02/peptide complexes. Viable singlet cells were gated for CD8+ lymphocytes. Boolean gates helped excluding false-positive events detected with multimers specific for different peptides.
In order to obtain information regarding the immunogenicity of the TUMAPs of the present invention, the inventors performed investigations using an in vitro T-cell priming assay based on repeated stimulations of CD8+ T cells with artificial antigen presenting cells (aAPCs) loaded with peptide/MHC complexes and anti-CD28 antibody.
In order to perform in vitro stimulations by artificial antigen presenting cells loaded with peptide-MHC complex (pMHC) and anti-CD28 antibody, the inventors first isolated CD8+ T cells from fresh HLA-A*02 leukapheresis products via positive selection using CD8 microbeads (Miltenyi Biotec, Bergisch-Gladbach, Germany) of healthy donors obtained from the University clinics Mannheim, Germany, after informed consent.
PBMCs and isolated CD8+ lymphocytes were incubated in T-cell medium (TCM) until use consisting of RPMI-Glutamax (Invitrogen, Karlsruhe, Germany) supplemented with 10% heat inactivated human AB serum (PAN-Biotech, Aidenbach, Germany), 100 U/ml Penicillin/100 μg/ml Streptomycin (Cambrex, Cologne, Germany), 1 mM sodium pyruvate (CC Pro, Oberdorla, Germany), 20 μg/ml Gentamycin (Cambrex). 2.5 ng/ml IL-7 (PromoCell, Heidelberg, Germany) and 10 U/ml IL-2 (Novartis Pharma, Nümberg, Germany) were also added to the TCM at this step.
Generation of pMHC/anti-CD28 coated beads, T-cell stimulations and readout was performed in a highly defined in vitro system using four different pMHC molecules per stimulation condition and 8 different pMHC molecules per readout condition.
The purified co-stimulatory mouse IgG2a anti human CD28 Ab 9.3 (Jung et al., 1987) was chemically biotinylated using Sulfo-N-hydroxysuccinimidobiotin as recommended by the manufacturer (Perbio, Bonn, Germany). Beads used were 5.6 μm diameter streptavidin coated polystyrene particles (Bangs Laboratories, Illinois, USA).
800.000 beads/200 μl were coated in 96-well plates in the presence of 4×12.5 ng different biotin-pMHC, washed and 600 ng biotin anti-CD28 were added subsequently in a volume of 200 μl. Stimulations were initiated in 96-well plates by co-incubating 1×10^6 CD8+ T cells with 2×10^6 washed coated beads in 200 μl TCM supplemented with 5 ng/ml IL-12 (PromoCell) for 3 days at 37° C. Half of the medium was then exchanged by fresh TCM supplemented with 80 U/ml IL-2 and incubating was continued for 4 days at 37° C. This stimulation cycle was performed for a total of three times. For the pMHC multimer readout using 8 different pMHC molecules per condition, a two-dimensional combinatorial coding approach was used as previously described (Andersen et al., 2012) with minor modifications encompassing coupling to 5 different fluorochromes. Finally, multimeric analyses were performed by staining the cells with Live/dead near IR dye (Invitrogen, Karlsruhe, Germany), CD8-FITC antibody clone SK1 (BD, Heidelberg, Germany) and fluorescent pMHC multimers. For analysis, a BD LSRII SORP cytometer equipped with appropriate lasers and filters was used.

For “380 (YLDRKLLTL; listed as Homo sapiens) [compound 380]”, the “Peptide Exchange (MHC class I binding score, peptide exchange yield)” value (“Peptide Exchange” below) with HLA-A*02:01 was ““+++” (>50 = +++)”. For the same substance, in the experiment with CD8+ T cells, the “Wells positive [%]” value was ““++++” (>=70% = ++++)”.
On the same counts, the results for “81 (WLVGQEFEL; listed as Homo sapiens) [compound 81]” are ““+++” (>50 = +++)” and ““+” (<20% = +)”.
As for “197 (YLQEVPILTL; listed as Homo sapiens) [compound 197]”, the “Peptide Exchange” value with HLA-A*02:01 was ““++++” (>75% = ++++)”. In the experiment with CD8+ T cells, the “Wells positive [%]” value is listed as ““+” (<20% = +)”.
With “57 (GLSEISLRL; listed as Homo sapiens) [compound 57]”, in the experiment with HLA-A*02:01, the “Peptide Exchange” value is on record as ““++++” (>75% = ++++)”. Moreover, the “Wells positive [%]” value in the experiment with CD8+ T cells is ““+” (<20% = +)”.
On the same counts, the results for “2 (ALHRPDVYL; listed as Homo sapiens) [compound 2]” are ““+++” (>50 = +++)” and ““+” (<20% = +)”.
For “201 (YQLELHGIEL; listed as Homo sapiens) [compound 201]”, the “Peptide Exchange” value in the experiment with HLA-A*02:01 was ““++++” (>75% = ++++)”. Further, the “Wells positive [%]” value in the experiment on CD8+ T cells is ““+” (<20% = +)”.
In the case of “69 (GLHQREIFL; listed as Homo sapiens) [compound 69]”, the “Peptide Exchange” value with HLA-A*02:01 is ““+++” (>50 = +++)”. Besides, in the experiment on CD8+ T cells, the “Wells positive [%]” value is given as ““+” (<20% = +)”.
For “17 (ALTKTNLQL; listed as Homo sapiens) [compound 17]”, in the experiment with HLA-A*02:01, the “Peptide Exchange” value is listed as ““+++” (>50 = +++)”. Further, in the experiment on CD8+ T cells, the “Wells positive [%]” value is ““+” (<20% = +)”.
On to “332 (VMIQHVENL; listed as Homo sapiens) [compound 332]”, for which the “Peptide Exchange” value in the experiment with HLA-A*02:01 was ““+++” (>50 = +++)”. The “Wells positive [%]” value with CD8+ T cells is ““+” (<20% = +)”.
On the same counts, the results for “101 (ILVVIEPLL; listed as Homo sapiens) [compound 101]” are ““++++” (>75% = ++++)” and ““+” (<20% = +)”.
With “114 (LIPEGPPQV; listed as Homo sapiens) [compound 114]”, in the experiment with HLA-A*02:01, the “Peptide Exchange” value is on record as ““+++” (>50 = +++)”. Besides, the “Wells positive [%]” value in the experiment with CD8+ T cells is reported as ““+” (<20% = +)”.
“86 (HLYPGAVTI; listed as Homo sapiens) [compound 86]”: the “Peptide Exchange” value with HLA-A*02:01 is ““+++” (>50 = +++)”. The “Wells positive [%]” value in the experiment on CD8+ T cells is recorded as ““+” (<20% = +)”.
Regarding “281 (NLLDDRGMTAL; listed as Homo sapiens) [compound 281]”, the “Peptide Exchange” value with HLA-A*02:01 is on record as ““+++” (>50 = +++)”. Also, the “Wells positive [%]” value in the experiment on CD8+ T cells was ““+” (<20% = +)”.
Take “323 (SLDLFNCEV; listed as Homo sapiens) [compound 323]”: in the experiment with HLA-A*02:01, the “Peptide Exchange” value was ““++++” (>75% = ++++)”. The “Wells positive [%]” value in the experiment with CD8+ T cells is given as ““+” (<20% = +)”.
As to “154 (SLLAELHVLTV; listed as Homo sapiens) [compound 154]”, the “Peptide Exchange” value in the experiment with HLA-A*02:01 is ““++++” (>75% = ++++)”. Besides, the “Wells positive [%]” value with CD8+ T cells was ““+” (<20% = +)”.
For the substance “240 (ILARDILEI; listed as Homo sapiens) [compound 240]”, the “Peptide Exchange” value with HLA-A*02:01 is ““+++” (>50 = +++)”. The “Wells positive [%]” value with CD8+ T cells is on record as ““+” (<20% = +)”.
On to “180 (LLKDGPEIGL; listed as Homo sapiens) [compound 180]”, for which the “Peptide Exchange” value with HLA-A*02:01 is ““++” (>20% = ++)”.
Same read-out and setting: then “247 (KLKDRLPSI; listed as Homo sapiens) [compound 247]”, with ““++” (>20% = ++)”; and “1 (AIPPSFASIFL; listed as Homo sapiens) [compound 1]”, with ““+++” (>50 = +++)”.
As to “326 (VLAFLVHEL; listed as Homo sapiens) [compound 326]”, the “Peptide Exchange” value in the experiment with HLA-A*02:01 is listed as ““++++” (>75% = ++++)”.
On to “130 (LLVLIPVYL; listed as Homo sapiens) [compound 130]”, for which the “Peptide Exchange” value with HLA-A*02:01 is ““+” (>10% = +)”.
As to “245 (KIMDYSLLLGV; listed as Homo sapiens) [compound 245]”, the “Peptide Exchange” value with HLA-A*02:01 was ““++++” (>75% = ++++)”.
The same measure, in the same setting: the value for “225 (ILQERELLPV; listed as Homo sapiens) [compound 225]” was ““+++” (>50 = +++)”; that for “278 (YLDDLLPKL; listed as Homo sapiens) [compound 278]” was ““+++” (>50 = +++)”; that for “241 (ILGDILLKV; listed as Homo sapiens) [compound 241]” was ““+++” (>50 = +++)”.
Consider “198 (YLTFLPAEV; listed as Homo sapiens) [compound 198]”, for which the “Peptide Exchange” value with HLA-A*02:01 was ““+++” (>50 = +++)”.
The same measure, in the same setting: the value for “87 (HQIEAVDGEEL; listed as Homo sapiens) [compound 87]” was ““++” (>20% = ++)”; that for “351 (ALSEKLARL; listed as Homo sapiens) [compound 351]” was ““+++” (>50 = +++)”; that for “95 (ILGYMAHEHKV; listed as Homo sapiens) [compound 95]” was ““++” (>20% = ++)”.
In the case of “293 (ALDIMIPMV; listed as Homo sapiens) [compound 293]”, the “Peptide Exchange” value with HLA-A*02:01 is ““+++” (>50 = +++)”.
The same measure, in the same setting: then “177 (VLDDRELLL; listed as Homo sapiens) [compound 177]”, with ““+++” (>50 = +++)”; and “222 (ALWELSLKI; listed as Homo sapiens) [compound 222]”, with ““+++” (>50 = +++)”; and “237 (GLQENLDVVV; listed as Homo sapiens) [compound 237]”, with ““++++” (>75% = ++++)”.
Same read-out and setting: then “58 (YIQQGIFSV; listed as Homo sapiens) [compound 58]”, with ““+++” (>50 = +++)”.
On to “156 (SLNIGDVQL; listed as Homo sapiens) [compound 156]”, for which the “Peptide Exchange” value in the experiment with HLA-A*02:01 was ““+++” (>50 = +++)”.
Turning to “265 (TLLADDLEIKL; listed as Homo sapiens) [compound 265]”, the “Peptide Exchange” value with HLA-A*02:01 is on record as ““+++” (>50 = +++)”.
The same measure, in the same setting: then “46 (YIIDSAQAV; listed as Homo sapiens) [compound 46]”, with ““+++” (>50 = +++)”.
For the substance “94 (ILFPLRFTL; listed as Homo sapiens) [compound 94]”, the “Peptide Exchange” value with HLA-A*02:01 was ““+++” (>50 = +++)”.
As to “111 (KLWNVAAPLYL; listed as Homo sapiens) [compound 111]”, the “Peptide Exchange” value with HLA-A*02:01 is ““+++” (>50 = +++)”.
